Measured values taken from patent publication US11459387B2, “Anti-CD147 antibody” (DAIICHI SANKYO COMPANY, LIMITED, priority 2017, dated 2022).

How the values were obtained:
[1] = test system: human liver cell line HepG2; experiment: HepG2 liver cancer model in NOD-scid mice; type: in vivo; details: qD1x9 po, n=5; for Average tumor volume: NOD-scid mice
Description: 5×10^6 cells of the human liver cell line HepG2 were suspended in PBS containing 50% Matrigel (Corning Inc., Cat. 354234), and the suspension was inoculated subcutaneously into the axilla of 4 week-old female NOD-scid mice (NOD. CB17-Prkdc/J, purchased from CHARLES RIVER LABORATORIES JAPAN, INC). […] As a control drug, sorafenib (Nexavar tablets 200 mg, Bayer AG), which is a therapeutic agent for liver cancer, was dissolved in a PEG-35 castor oil (Cremophor EL, NACALAI TESQUE, INC., Cat. 09727-14) ethanol solvent according to the reference (Chang et. al., Cancer Chem. Thera. Pharm., 2007) attached to Nexavar tablets, and the solution was orally administered to cancer-bearing mice at 30 mg/kg or 90 mg/kg 9, 10, 11, 12, 13, 16, 17, and 18 days after the inoculation (n=5). The major axis and the minor axis of the inoculated tumor were measured twice a week using an electronic digital caliper (available from MITUTOYO CORPORATION) to calculate the tumor volume by the following formula. Tumor volume (mm^3)=½×minor axis (mm)×minor axis (mm)×major axis (mm)

[2] = test system: human peripheral blood mononuclear cells; experiment: Cytokine release assay using human peripheral blood; type: cell-based; details: 6 donors
Text: In some antibodies such as OKT3 and TGN1412, administration of the therapeutic antibodies causes an increase in cytokines in the blood by activating immune cells, thereby causing serious cytokine release syndrome (Gaston, R., Kidney International, 1991, 141-148; Suntharalingam, G., et al., N. Engl. J. Med. 2006, 1018-1028). It has been reported that some CD147 antibodies act on immune cells, having an action of increasing production of interferon gamma or interleukin-4 (Hu, J., et al., J. Cell. Mol. Med., 2010, 2132-2143). The toxicity of antibody drugs due to cytokine release syndrome can be predicted by a cytokine release assay using peripheral blood (Vessillier, S. et al., J. Immunolol. Methods, 2015, 43-52).

[3] = test system: human pancreatic line BxPC-3; experiment: SMAD4-negative BxPC-3 pancreatic cancer-bearing model in BALB/c-nu mice; type: in vivo; details: antibody 10 mg/kg ip 8, 15 and 22 days after the inoculation; BALB/c-nu mice
Text: The transcription factor, SMAD4, is known as one of the molecules important for activation of SMAD signaling (Zang, et al., Current Biology, 270-276, 1997). It is known that SMAD signaling is partially impaired due to genetic defects of SMAD4 in some pancreatic cancers (Hahn, et al., Science, 350-353, 1996). […] 2.5×10^6 cells of human pancreatic line BxPC-3 (ATCC, Cat. CRL-1687) were suspended in PBS containing […] (Corning Inc., Cat. 354234), and the suspension was inoculated subcutaneously into the axilla of 6 week-old female BALB/c-nu mouse (CAnN. Cg-Foxn1nu/CrlCrlj, purchased from CHARLES RIVER LABORATORIES JAPAN, INC). […] As a control drug, gemcitabine (Eli Lilly Japan K.K., Gemzar®) that is a therapeutic agent for pancreatic cancer was administered to mice bearing tumor via the tail vein at 200 mg/kg 8, 15, 22 days after the inoculation (n=5). The major axis and the minor axis of the inoculated tumor were measured twice a week using an electronic digital caliper (available from MITUTOYO CORPORATION) to calculate the tumor volume by the following formula. Tumor volume (mm^3)=½×minor axis (mm)×minor axis (mm)×major axis (mm)

[4] = test system: human pancreatic line PANC-1; experiment: Antibody screening by in-vivo antitumor efficacy, PANC-1 xenograft in NOD-scid mice
Description: 1×10^7 cells of human pancreatic line PANC-1 were suspended in PBS, and the suspension was inoculated subcutaneously into the axilla of NOD-scid mice (CHARLES RIVER LABORATORIES JAPAN, INC., NOD. CB17-Prkdc/J). […] The major axis and the minor axis of the inoculated tumor were measured twice a week using an electronic digital caliper (available from MITUTOYO CORPORATION) to calculate the tumor volume by the following formula. Tumor volume (mm^3)=½×minor axis (mm)×minor axis (mm)×major axis (mm)

[5] = test system: human pancreatic line MIA PaCa-2; experiment: ADCC activity, 51Cr release, human PBMC effector cells; type: cell-based; details: antibody 0.5 or 5 μg/ml; MIA PaCa-2 target cells
Description: Antibody-dependent cellular cytotoxicity (ADCC) activity can be measured by a ^51Cr release assay method, which measures cell death caused when immune cells having effector activity, an antibody and ^51Cr-labeled target cells are brought into contact. The ADCC activity of the anti-human CD147 antibody of the present invention is measured as follows. Regarding the ADCC activity of the anti-human CD147 antibody, human peripheral blood mononuclear cells (PBMC) are used as effector cells, and a CD147-positive human cancer cell line (for example, pancreatic cancer cell line MIA PaCa-2) is used as ADCC target cells. Cancer cells labeled with a radioisotope, ^51Cr, and the antibody to be evaluated are treated at a concentration of 0.5 or 5 μg/ml at 4° C. for 30 minutes, PBMC separated from human peripheral blood is added at 20 times the proportion of cancer cells, and then cells are cultured for 4 hours at 37° C. in the presence of 5% CO2. […] The measured value of ^51Cr released from ^51Cr-labeled cancer cells treated with Triton-100 is designated as a “Maximum release value” and the measured value of ^51Cr released from ^51Cr-labeled cancer cells treated with antibody in the absence of PBMC is designated as a “Spontaneous release value”. With these values, % Specific release is calculated from the following formula. […]

[6] = test system: human pancreatic line MIA PaCa-2; experiment: CDC activity with rabbit complement, CellTiter-Glo; type: cell-based; details: antibody 10 μg/ml; rabbit complement 7.5%; 3 hours
Description: Complement-dependent cytotoxicity (CDC) activity can be evaluated by measuring cell death caused when complement contained in blood, an antibody and target cells are brought into contact. The CDC activity of the anti-human CD147 antibody of the present invention is measured as follows. The complement-dependent cytotoxicity activity (CDC activity) of the anti-human CD147 antibody is evaluated using human pancreatic cell line MIA PaCa-2 as target cells. Commercially available rabbit complement (Low Tox-M Rabbit Complement, […] LABORATORIES LIMITED, Cat. CL3051) is used as the complement. […] Target cells are treated with the antibody to be evaluated and the negative control antibody at concentrations of 0, 0.1, 1 or 10 μg/ml for 1 hour at 4° C., the rabbit complement is added in such a manner that the final concentration is 7.5%, the resultant mixture is heated at 37° C. in the presence of 5% CO2 for 3 hours, and then intracellular ATP contained in living cells is measured using the CellTiter-Glo Lumimescent Cell Viability Assay (Promega, Cat. G7572). Luminescent signals obtained using the CellTiter-Glo Lumimescent Cell Viability Assay are quantitatively determined using an EnVision 2104 Multilabel Reader (Perkin Elmer). The measurement is performed three times and the average value and the standard deviation are calculated. […]

Molecule: CNC(=O)c1cc(Oc2ccc(NC(=O)Nc3ccc(Cl)c(C(F)(F)F)c3)cc2)ccn1 [Sorafenib, sorafenib, reference compound]
- Number of examples of complete tumor regression ([1]; 30 mg/kg): 0/5
- tumor growth inhibition rate ([1]; 30 mg/kg): 18%
- Average tumor volume ([1]; 30 mg/kg): 1425 mm^3
- Number of examples of complete tumor regression ([1]; 90 mg/kg): 0/5
- tumor growth inhibition rate ([1]; 90 mg/kg): 28%
- Average tumor volume ([1]; 90 mg/kg): 1252 mm^3

Molecule: anti-human CD3 antibody (OKT3): comparative antibody in the cytokine release assay (BioLegend Cat. No317326) [reference compound]
- acceleration of cell growth in human peripheral blood mononuclear cells [2]: acceleration of cell growth
- cytokine release (TNFα, INF-γ, IL-2, IL-6, IL-8, IL-10, MIP-1α) ([2]; human peripheral blood): acceleration of cytokine release

B1: LN22R8: mouse anti-human CD147 monoclonal antibody, Mouse IgG3; light chain variable region SEQ ID NO: 8, heavy chain variable region SEQ ID NO: 10 (antibody, listed as Mus musculus, V domains shown)
VH: QIQLVQSGPELKKPGETVKISCKASGYTFTNYGMNWVKQAPGKGLKWMGWINTYTGEPTYADDFKGRFAFSLETSASTAYLQINNLKNEDTATYFCARGGYGNYGAGAMDYWGQGTSVTVSS
VL: DIQMTQSPSSLSASLGERVSLTCRASLEISGFLSWLQQKPDGTIKRLIYAASILDSGVPKRFSGSRSGSDYSLTISSLESEDFADYYCLQYASYPWTFGGGTKLEIKR
- sensitivity of BxPC-3 tumor (in words) [3]: resistant
- tumor growth inhibition rate ([4]; 10 mg/kg ip administration group, 48th day after the inoculation (final measurement date), NOD-scid mice): 50%
- in vivo anti-tumor effect ([4]; antitumor efficacy of Example 1)-7 (PANC-1 xenograft, 10 mg/kg) as listed in Table 3): 50%
- ADCC activity (in words) [5]: no ADCC activity
- living cells (CDC activity, luminescence of non-treated cells = 100%) [6]: 41.1%
